Data taken from publication PMC7315737, “The putative Escherichia coli dehydrogenase YjhC metabolises two dehydrated forms of N-acetylneuraminate produced by some sialidases” (Bioscience Reports, 2020).

Key:
Assay type in all cases: biochemical, Escherichia coli
[1] = substrate: NC(=O)c1ccc[n+]([C@@H]2O[C@H](COP(=O)(O)OP(=O)(O)OC[C@H]3O[C@@H](n4cnc5c(N)ncnc54)[C@H](O)[C@@H]3O)[C@@H](O)[C@H]2O)c1; assay: Neu5Ac formation versus NAD+ concentration, endpoint assay; conditions: 1 mM 2,7-AN, 0.45 µM YjhC, 30 mM HEPES pH 7.5, 10 mM KCl, 1 mM MgCl2, 37°C, Ka is a half-activation constant, not an association constant, varied: cofactor
purified protein [2] = substrate: CC(=O)N[C@H]1[C@H]2O[C@@](C(=O)O)(C[C@@H]1O)O[C@@H]2[C@H](O)CO; assay: purified protein; conditions: 50 µM NAD+, 30 mM HEPES pH 7.5, 10 mM KCl, 1 mM MgCl2, 37°C, sigmoidal, Hill coefficient 2.20
purified protein [3] = substrate: [H][C@@]1([C@H](O)[C@H](O)CO)OC(C(=O)O)=C[C@H](O)[C@H]1NC(C)=O; assay: purified protein; conditions: 50 µM NAD+, 30 mM HEPES pH 7.5, 10 mM KCl, 1 mM MgCl2, 37°C, sigmoidal, Hill coefficient 2.59

B1: YjhC (Escherichia coli K-12) (protein)
chain: MINYGVVGVGYFGAELARFMNMHDNAKITCVYDPENGENIARELQCINMSSLDALVSSKLVDCVIVATPNYLHKEPVIKAAKNKKHVFCEKPIALSYEDCVDMVKACKEAGVTFMAGHIMNFFNGVQYARKLIKEGVIGEILSCHTKRNGWENKQERLSWKKMKEQSGGHLYHHIHELDCVQHLLGEIPETVTMIGGNLAHSGPGFGNEDDMLFMTLEFPSGKLATLEWGSAFNWPEHYVIINGTKGSIKIDMQETAGSLRIGGQTKHFLVHETQEEDDDRRKGNMTSEMDGAIAYGHPGKKTPLWLASLIRKETLFLHNILCGAKPEEDYIDLLNGEAAMSAIATADAATLSRSQDRKVKISEIIKHTSVM
notes: full-length ORF from ASKA library in pCA24N, N-terminal His6-tag kept, expressed in E. coli BL21
B1 showed a K0.5 [1] of 0.84 µM, a K0.5 (purified protein [2]) of 0.45 mM and a K0.5 (purified protein [3]) of 0.30 mM.
